Laboratory results from patent US20260015398A1.

Molecular target: strepII-flag-PLXA fusion protein displayed on engineered extracellular vesicles (strepII-flag-PLXA-EV) (Homo sapiens (Human)) (UniProt Q9UIW2)
Assay: in vitro co-incubation of EVs with FITC-streptactin (10000:1), nanoflow cytometry, share of FITC-positive EVs

UniProt Q9UIW2, sequence (Q9UIW2 863-1316 limits assumed, change not shown): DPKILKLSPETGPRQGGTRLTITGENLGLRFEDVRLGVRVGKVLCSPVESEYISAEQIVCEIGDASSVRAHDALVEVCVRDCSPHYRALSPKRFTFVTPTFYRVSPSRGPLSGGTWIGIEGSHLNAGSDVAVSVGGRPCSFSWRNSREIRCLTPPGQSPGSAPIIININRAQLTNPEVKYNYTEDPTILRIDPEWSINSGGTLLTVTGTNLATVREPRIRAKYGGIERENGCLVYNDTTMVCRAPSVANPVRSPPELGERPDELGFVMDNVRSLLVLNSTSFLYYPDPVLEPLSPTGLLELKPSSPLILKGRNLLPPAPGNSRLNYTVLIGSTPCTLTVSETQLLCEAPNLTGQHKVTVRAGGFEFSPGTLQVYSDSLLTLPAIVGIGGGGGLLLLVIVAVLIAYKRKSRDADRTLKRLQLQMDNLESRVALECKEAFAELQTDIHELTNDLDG

In the case of FITC-streptactin, the positive rate is reported as 73%.
